Reference: publication PMC7095341

Target: MERS-CoV spike receptor binding domain (RBD), residues 367–606, His-tagged (MERS-CoV), K0BRG7
Assay: SPR
Conditions: remark: other sources report otherwise

B1: human CD26 (dipeptidyl peptidase 4), residues 39–766, His-tagged, P27487 39-766 (receptor)
chain: SRKTYTLTDYLKNTYRLKLYSLRWISDHEYLYKQENNILVFNAEYGNSSVFLENSTFDEFGHSINDYSISPDGQFILLEYNYVKQWRHSYTASYDIYDLNKRQLITEERIPNNTQWVTWSPVGHKLAYVWNNDIYVKIEPNLPSYRITWTGKEDIIYNGITDWVYEEEVFSAYSALWWSPNGTFLAYAQFNDTEVPLIEYSFYSDESLQYPKTVRVPYPKAGAVNPTVKFFVVNTDSLSSVTNATSIQITAPASMLIGDHYLCDVTWATQERISLQWLRRIQNYSVMDICDYDESSGRWNCLVARQHIEMSTTGWVGRFRPSEPHFTLDGNSFYKIISNEEGYRHICYFQIDKKDCTFITKGTWEVIGIEALTSDYLYYISNEYKGMPGGRNLYKIQLSDYTKVTCLSCELNPERCQYYSVSFSKEAKYYQLRCSGPGLPLYTLHSSVNDKGLRVLEDNSALDKMLQNVQMPSKKLDFIILNETKFWYQMILPPHFDKSKKYPLLLDVYAGPCSQKADTVFRLNWATYLASTENIIVASFDGRGSGYQGDKIMHAINRRLGTFEVEDQIEAARQFSKMGFVDNKRIAIWGWSYGGYVTSMVLGSGSGVFKCGIAVAPVSRWEYYDSVYTERYMGLPTPEDNLDHYRNSTVMSRAENFKQVEYLLIHGTADDNVHFQQSAQISKALVDVGVDFQAMWYTDEDHGIASSTAHQHIYTHMSHFIKQCFSLP
modifications: here or on the partner: N229-linked carbohydrate
B1 gave a Kd of 16.7 nM, a koff of 0.00299 s⁻¹ and a kon of 179000 M⁻¹ s⁻¹.
